Test results reported in the DeepSol protein solubility set.

Test: soluble on expression in E. coli; label from the status in PepcDB or PDB records

Soluble on expression in E. coli, not soluble:
MTLSAIQPNDMALYHYDSCPFCAKTRHAINELDLNIELRNIQKNHQHRIELQQGGNKTQVPCLRIGQSNGKAQWLYESGDIINFLRNRK
MNINEPSVSIIMATYNSEKFLRETLDSICCQTYGNWELIITDDSSTDNTSDILRDYSERYNNIFYSINEVNQGAAISRNKCISQAKGMYIAFIDSDDLWAHNKLEKHIHFIAEHNSAISFTSYELMNENGIPLGKYVDANIPPVLTYNDMLRKKATIGCSTVILSSKLVGEFKMPLLRTGQDYATWLLLLKKVEVAHHFPKVLTKYRVCKNSISRNKFKKAKRQWQIYREVEKLPFYESIVCFCFYAWRAVFRK
AHHHHHHGSKKKYKKVVVGGTFDRLHLGHKALLRKAFEVGEIVYIGLTSDEMIKEKQYSERILPYEKRLLDLIKFLEVNKYRNYRIMKIHNAIGFTTKIKSLEAIVVSEETYKGAVLVNKAREELGLRPLDIVVIPIIRSRLGCKISSSLIRAGLIDPFGNPIRREEK
MHVLIVDDEPLAREELSYLVSQHPQVTSVAEADSVAEAMEEMMDQKPDLLFLDIHLTDESGFDLAEKLTHLKKAPYLVFATAYDQYALKAFQVNAKDYILKPFEEEKITQVIEKASKEMGQAVPENTAEKGPKSEAIPIQGEDRIYLVAPEDIYLVSVEERQLSIFVDQQVYKMTGTLNSIEQKLPATLFIKTHRSFILNRTKIQEIQPWFNNTLQVILTNGSKVPVSRSYVKEFKEKLGLS
MSFRIEEKIVLTASDMARLQADLQARGMVPLYPARLIRSVYFDTSGLQMFSDSEEGVLPRKKVRLRRYPEQADAGAVLETKISSVEGRFKTALPVAPETERRLLRQGHFDRDYGTLQAMVAVSYRRAYYSLDGLRITFDRDIAYARPDGQTARREAWTVCELKAPAEAPLDALHHILPVPRRRFSKFCNGVSAVIARALEHHHHHH
MTDEVILANATLVLRGETVTGSLHIKGETIAGIDQGAHVPAGAVDCEGDFVSPGLVELHTDNLERHIQPRPKVDWPHAAAILAHDAELAGTGITTVFDAMRVGSIPSGAGRYLQYARNLSRELWQLREASALKISHFLHLRAEVCSETLVEELDEFAPEDRVGLVSLMDHTPGQRQFRDMTKLEAYMKGKHAMSDDTFLQHVSQLKGLRDRYGDRHEIETVKAARRLGSVLASHDDTTAEQVAVSAGHGIRLAEFPTTIEAAEACHAHGIKVIMGAPNLIRGGSHSGNVAAADLAERGLLDILSSDYVPSALLLSAVRLGALWGDMARGMATVTRTPAQAVGLDDRGEIAPGLRADLIRFRMSQDVPALQSVWSRGRRVA
MGHHHHHHSHMSGTEEAILGGRDSHPAAGGGSVLCFGQCQYTAEEYQAIQKALRQRLGPEYISSRMAGGGQKVCYIEGHRVINLANEMFGYNGWAHSITQQNVDFVDLNNGKFYVGVCAFVRVQLKVRGWSRPAARKDQWVVGEGWFIS
MYADEVDKDRRTFKKNFSSARGSGIDGKWKRDMFQTANRSPKQNFTTKRRAQTNFVTKAGAAAAGLATRNISTASIRGRTAPAVVREIHTGPSTLIIKNLATTVTQEDLEELFEQYEPELVQLHYGPTGESNGCADLIVPHAQVAIIQKALEGVLLDGEPIEVLEANPPKQVSVFDRIKKVSRGNDFKAKNMRVVVKSKGGFQKRGARGDF
MSNSKDLMSEFEKLRQETSKIQYSLIQKLPSEPSSFVENQLLLETQTLCGQLLKNQEEQNILNEKLRNEQKIIKLKHNTEMKSMRDKLETLTTAQAAQKLDFERHFEMMRQSHSAKIVKMERDLRNMKYDLHSLRSDMDSRKNCENRAAPKPEFQIFVKVLGVSYAFKIHREDTVFDIKNDIEHRHDIPQHSYWLSFSGKRLEDHCSIGDYNIQKSSTITMYFRSG
MRIAIEKIIGLLKNQSSKESNVKIHRLAYITNSKFDGNNYIDRWCKIRNSHIGEYSYIGFGSDFNNVEVGRYCSISSDVKIGLGKHPTHFFSSSPIFYSNNNPFNIKQKFIDFNDQPSRTTIKNDVWIGANVIIMDGLTINTGAVIAAGSVVTKNVGAYEVVGGVPAKVIKKRFDNKTIEKLLESKWWEKTPDKLKGFSVEYLNKKDT
SIIPSLEELDSLKYSDLQNLAKSLGLRANLRATKLLKALKGYIKHEARKGNENQDESQTSASSCDETEIQISNQEEAERQPLGHVTKTRRRCKTVRVDPDSQQNHSEIKISNPTEFQNHEKQESQDLRATAKVPSPPDEHQEAENAVSSGNRDSKVPSEGKKSLYTDESSKPGKNKRTAITTPNFKKLHEAHFKEMESIDQYIERKKKHFEEHNSMNELKQPINKGGVRTPVPPRGRLSVASTPISQRRSQGRSCGPASQSTLGLKGSLKRSAISAAKTGVRFSAATKDNEHKRSLTKTPARKSAHVTVSGGTPKGEAVLGTHKLKTITGNSAAVITPFKLTTEATQTPVSNKKPVFDLKASLSRPLNYEPHKGKLKPWGQSKENNYLNQHVNRINFYKKTYKQPHLQTKEEQRKKREQERKEKKAKVLGMRRGLILAED
MAISVFDMFKIGIGPSSSHTVGPMRAGALFVTELRNQNRLHSVERIEVRLYGSLSATGIGHGSDRATVMGLMGEWPDQIDPSQVNQRIDALRADNQLMLAGEQAITFVWERDMCLLDESLPYHPNGMTLCAYGKTGEVHEQTYYSVGGGFVIDAEQAASGV
RLIRSVLCSSSAGFGQGFCSPSLRRHLSARFPRGHGNALANFSSCARSRVHAYSSASSATSVGVPVAKMRFIDIGANLLDEMYTGQYNDKPYHPPDLSAVLERAWAAGLEKLMITAGSLKEARAALELAKTDERLYCTVGCHPTRCKEFEDHPGGPEAYLQELLEVLKEGQALGKVVAVGECGLVATDYERLHFCDADTQKKYFEAQFRLAKESGLPMFLHLRAAADDFLDITGRHLGDFPRGGVVHSFDGTAEEAARVLAVPQLAIGINGCSLKTDDNLAVVGGLPLERIMLETDCPWCEIRPTHAGRKHVSAEALAGVTGAKDRKKFMPGCQVKS

Soluble on expression in E. coli, soluble:
MLYKEPEDGEKIKFDKGKWIVPNKPVILYIEGDGIGPEITNAAIKVINKAVERAYGSSREIKWLEVYAGEKAEKLVNDRFPKETQEMLLKYRVVLKGPLETPIGKGWKSVNVAIRLMLDLYANIRPVKYIEGLESPLKHPEKVDMIIFRENTDDLYRGIEYPFNSEEAKKIRDFLRKELKVEIEDDTGIGIKVMSKYKTQRITRLAIQYAIEHKRKKVTIMHKGNVMKYTEGAFREWAYEVALKEYRDFIVTEEEINQGKPDQGKIILNDRIADNMFQQIIIRPEEYDIILAPNVNGDYISDAAGALIGNIGMLGGANIGDEGGMFEAIHGTAPKYAGKNVANPTGIIKAGELMLRWMGWNEAADLIEKAINMAIRDKKVTQDIARFMGVKALGTKEYADELIKIMDTI
MSLSDHKIDRIRVHRVLIPGKAVHSHGIGDVAGIHAVILEVITDTGLTGWGEASPWPAFTGTAEGTVAALYTYLRPHLIGQDPVQVERHMRDAEALVVGHPEAKAALEMALLDLTGQISGLSVCELVGGRMRDDMGLSFSVANPDFGKDLEDVAAMWAEGVRIFKIKTGFKSHGFDLMRLEKLRGIYGAEADLRIDYNQGLPAYDAVRCIRDLEAFRPTFVEQPVKMHERDALAHIAHVIETPIMADESVFGVREALHGVQIRMADIFSLKVMKSGGIRRALEVSAIARAAGIEVYGGCMFETGLAHAAGAHLMAALPELRLDCEFYMSTYYASEDILTEPFPVRGGRVHVPEGPGLGVAVDPAMLAKYAQAEALGEGHHHHHH
MTTFPTLDPELAAALTMLPKVDFADLPNARATYDALIGAMLADLSFDGVSLRELSAPGLDGDPEVKIRFVTPDNTAGPVPVLLWIHGGGFAIGTAESSDPFCVEVARELGFAVANVEYRLAPETTFPGPVNDCYAALLYIHAHAEELGIDPSRIAVGGQSAGGGLAAGTVLKARDEGVVPVAFQFLEIPELDDRLETVSMTNFVDTPLWHRPNAILSWKYYLGESYSGPEDPDVSIYAAPSRATDLTGLPPTYLSTMELDPLRDEGIEYALRLLQAGVSVELHSFPGTFHGSALVATAAVSERGAAEALTAIRRGLRSLSPVS
GAADHVKGDGKLTSKKISVADYNEIKVDGVIDFNYEQSDDPSTVEVTVDQNLHPYVNIEVKDRVLTIAFKGAKVDHFTKFIVKTNSKWLAAAKVSGNANFMVNSPLTGDETVIKANANSLVQLKETVTVGKLDLNVSGSANMVVNHLEADKIECDIDGSGSITIKKGNAKEGDYSIVSSGDIHAFGLAVPQLSCKVTGNGLAEVHATDNLKANVVGKGNIRYKGPTAVQQRIIGKGTVEEVKE
MVPTTPFTIENTPVGRGNSGARSHKEPSAKRKKPTSTPTVRCGTVPQEPSTSAATVTQKPAGSTMATANITETRRIDISSCSDRPLIPCTASGVPLTTFSNKSLDSILNQDSEIVGGISQKDLNELRNRGPNMTVKQLLAKNFKNYKVRQSLTSELATEFVNRTLSENDVPMGALIMPPMEDVQESIVKESKTYNYAAASGGSLPFSNPHSEGILIRSPAIKGPHTLRDVLDSLGSVGTPAANQTLKDVLGSFNSQQPIDPTPSKTLKDVLGSLDLDNDYDLKLKMEGLDHDLKVESPTDAELGLDEFANQILSSKYKGTSLDTDHTAYPGNHLPWPVLWKNPVPKYIQGEIYCYVDGCTYSPMSEIIKSGKFMVPLDHPVEFIFKDRPILVTMEELLTANGINMSKAQHYRMLQGLLQKSGVHIRADYAERLHEFQALMDGLEIEDKPRPALKLSSDKLPLMCIYPDIYMNALGRRIHGAVIVDSSGVQETIGTRTLITRHQIAEFLLENPESPDSPDITTAPSKNSTIGDMMRPKSKIRRTHYVDLNKMVWRHFKDCQAAGIQINGKQLKDQAMRYAKDMGLESFRGSEGWLDAFKRRHRIDLKSMTGYPVCYENDMYEEVDKECRELDMESHMLHQQPPSFFPQSAPDEFAASFFSSLSGFPQQMVVQEPPTTSSSNHLQNMINSMMTPPVVDSRMMPSTSSAGASGASASSQEPDGGGDTIFNVMRSCQIKVADKEVSHALDTLRTYILEHDPAAMSLLVPLQERLATTSSGAIGRDMPSTSSSS
GPGSMNPATKDVASAEEESPVVCTAKQYIFDLHSYAWKESDCLIRIPRPHKGMGHGGMRVCYAVEDVDEEGAGTPMVAKMFRRNISNVVEKDYFNEGAAQCMCEEFANNFNRIHLTNIRKPNISFLQCYVVRIPRDSIPAASQRKRTGFFSYKTQDTGEVMFVMEPMLSGKFTKYNSNYGETYREDKKAALTSSEARRRTEIFEAAETFSHFTLVESGGSMLVCDLQGVNDFFTDPQIHTEDGKGLGMGNMGQEGIDKWIEKHECNDICRALGLQPLLGAVPSSTACAREENMYLGLRAQLQSQNPVRLRDLVPLTKPLEEMTEAERIEYALKVSRLTD
MSLYSDQLVCPAHVPRGSPEGRVDAIAAMVTTRTAVQAPVERRTALFVNGQAWLTAQTTPHDLADWAVGRLCGEGLIAGPEEIAHLAVDEAGPCVHAVLPRVRTPAPPAPVAPGPRVAEAQLLRWMQEMLAQAPLYRATGGMHVAMAVRADSGEQIVREDIGRHQAVDKVLGAARLAGWPPAQVVVLTSGRISAEMCARVARFGAPVCASRTAATDEAWALATRLGMDLVGYVRTAASLIVYTTGNRVARRIEPEGHHHHHH
MVMWVFGYGSLVWNPGFHYDEKVLGFIKGYKRVFDLACIDHRGTPEHPARTCTLEKAEEAICWGTAFCVRGGPEKERLAMEEDDPLKPAVTGVIVFTSTPDKVSNKYYLGPAPLEDMARFLSSHLAVILYIQRQIATANGPCGNNRDYLFLLEKAMHDIGFVVKGSDLDGFKRDIVFDVLSHFLFHTGHEEDYVIELANEVRKVLAESSTKKVTPVKESRASRVANKSKNNVPTAHQILPHHPEAVATTI
